B1: mAb 12F27 (antibody, V domains shown)
VH: QVQLVESGGGVVQPGRSLRLSCAASGFSFRSYGIHWVRQAPGKGLEWVAVISYEGSNKRYADSVKGRFTISRDNSKSTLSLQMNSLRAEDTAVYYCAKGRRPSGEGAFDIWGQGTMVTVSS
VL: DIQMTQSPSSLSASVGDRVTITCRASQGISSWLAWYQQKPEKAPKSLIYAASSLQSGVPSRFSGSGSGTDFTLTISSLQPEDFATYYCQQYNSFPPTFGQGTKVEIKR
B2: mAb 14S15, nonfucosylated chimeric mouse-human anti-hCCR8 (antibody, human IgG1, kappa, V domains shown)
VH: EVQLVEFGGGLVQPKGSLKLSCVVSGFRFNPYAMNWVRQAPGKGLEWLGRIRSKSNNYETYYADSVKDRFIISRDDSQKMVYLQMNNVKTEDTAMYYCVGYSDLYVLDYWGQGTSVTVSS
VL: DIVMTQAAPSVPVTPGESVSISCRSSKSLLHSNGNTFLYWFLQRPGQSPQLLIYRMSNLASGVPHRFSGSGSGTAFTLRISRVEAEDVGVYYCMQHLEYPFTFGSGTKLEIKR
notes: Chimeric version with nf human IgG1 Fc; also called 14S15-IgG1-nf; CCR8.2
B3: 9G10, starting mouse anti-CCR8 mAb of 14S15 and 14S15h (antibody, V domains shown)
VH: B2 VH
VL: DIVMTQAAPSVPVTPGESVSISCRSSKSLLHSNGNTFLYWFLQRPGQSPQLLIYRMSNLASGVPHRFSGSGSGTAFTLRISRVEAEDVGVYYCMQHLEYPFTFGSGTKLEIK
notes: also called starting mouse Ab; starting mouse mAb
B4: 14S15h Fab fragment (Fab, V domains shown)
VH: EVQLVESGGGLVKPGGSLRLSCAASGFRFGPYAMNWVRQAPGKGLEWVGRIRSKSNNYETYYADSVKDRFTISRDDSKNTLYLQMNSLKTEDTAVYYCVGYSDLYVLDYWGQGTLVTVSS
VL: DIVMTQTPPSLPVNPGEPASISCRSSKSLLHSQGNTFLYWYLQKPGQSPQLLIYRMSNLASGVPDRFSGSGSGSDFTLKISWVEAEDVGVYYCMQHLEYPFTFGPGTKVDIK
notes: Tested as a Fab fragment whose constant parts are not delimited
B5: mAb 4A19, nonfucosylated humanized IgG1 anti-hCCR8 (antibody, V domains shown)
VH: QVQLVQSGAEVKKPGASVKVSCKASGYTFTDSEMHWVRQATGQGLEWMGAIQPETGGTAYNQKFKARVTMTRDTSISTAYMELSSLRSEDTAVYYCARRRRNFDYWGQGTLVTVSS
VL: DIVMTQTPLSLSVTPGQPASISCRSSQSLFHSSGNTYLHWYLQKPGQPPQLLIYKVSNRFSGVPDRFSGSGSGTDFTLKISRVEAEDVGVYYCSQSTHVPFTFGQGTKLEIKR
notes: hIgG1-nf, expressed in Expi293 Fut8-/- cells; also called CCR8-nf; A419

Assays:
[1] = biological target: T1, human C-C Motif Chemokine Receptor 8 (hCCR8) (human, UniProt P51685 1-355); experiment: cell-based or functional assay
[2] = biological target: T1, human C-C Motif Chemokine Receptor 8 …; experiment: cell-based or functional assay; remark: listed apart in the source
[3] = biological target: T1, human C-C Motif Chemokine Receptor 8 …; experiment: cell-based or functional assay; remark: listed apart in the source
[4] = biological target: T1, human C-C Motif Chemokine Receptor 8 …; experiment: flow cytometry, binding to activated human Tregs, median EC50
Protocol: Activated Tregs prepared from previously isolated and expanded Tregs were stimulated for 2 days with anti-CD3/CD28 activation beads (ThermoFisher) in the presence of 100 units/ml of recombinant human IL-2. The Abs were serially diluted from a starting concentration of 30 μg/ml. An appropriate PE-conjugated secondary Ab (Jackson ImmunoResearch) against the primary anti-CCR8 Ab was applied, incubated for 15 min at 4° C., and then washed off. EC₅₀ values for the binding of selected anti-CCR8 mAbs to activated Tregs, was calculated using GraphPad Prism (GraphPad Software, La Jolla, Calif.).
A select subset of Abs having EC₅₀ values ranging from picomolar to nanomolar is presented in FIG. 11B, and the respective EC₅₀ values are provided in Table 4.

[5] = biological target: T2, CCR8 N-terminal peptide (SPR of Example 10) (human, sulfation not stated in Example 10; the panning peptide was biotinylated); experiment: SPR; starting mouse Ab 9G10, before humanization
T2 construct: also called biotinylated CCR8 N-terminal peptide from Anaspec

[6] = biological target: T2, CCR8 N-terminal peptide (SPR of Example …); experiment: SPR; 14S15h Fab fragment, humanized, affinity-matured

Row | Binder | Median EC50 (pM), ADCC killing of activated Tregs by allogeneic NK cells [1] [pM] | IC50 (nM), blockade of calcium flux on CCR8-expressing cells [2] [nM] | EC50 (pM), cross-linking of CD16 expression reporter cells [3] [pM] | EC50 [4] [pM] | Kd [5] [pM] | Kd [6] [pM]
1 | B1 | 304000 | – | – | – | – | –
2 | B2 | 39.7 | 1.33 | 8.02 | 252 | – | –
3 | B3 | – | – | – | – | 1400 | –
4 | B4 | – | – | – | – | – | 640
5 | B5 | 13.1 | 0.465 | 0.69 | 1650 | – | –
